This note sets out measurements from article doi:10.1101/2024.10.25.620210, “The plastid-encoded RNA polymerase structures a logistic chain for light-induced photosynthesis” (bioRxiv, 2024).

The test addresses T1, β’’ subunit of the Sinapis alba plastid-encoded RNA polymerase (SaPEP) (Sinapis alba, UniProt Q9THV5 1-1384).
T1 construct: source: native, in the PEP purified from Sinapis alba cotyledon chloroplasts (heparin, MonoQ, Superose 6)
T1 sequence (looked up): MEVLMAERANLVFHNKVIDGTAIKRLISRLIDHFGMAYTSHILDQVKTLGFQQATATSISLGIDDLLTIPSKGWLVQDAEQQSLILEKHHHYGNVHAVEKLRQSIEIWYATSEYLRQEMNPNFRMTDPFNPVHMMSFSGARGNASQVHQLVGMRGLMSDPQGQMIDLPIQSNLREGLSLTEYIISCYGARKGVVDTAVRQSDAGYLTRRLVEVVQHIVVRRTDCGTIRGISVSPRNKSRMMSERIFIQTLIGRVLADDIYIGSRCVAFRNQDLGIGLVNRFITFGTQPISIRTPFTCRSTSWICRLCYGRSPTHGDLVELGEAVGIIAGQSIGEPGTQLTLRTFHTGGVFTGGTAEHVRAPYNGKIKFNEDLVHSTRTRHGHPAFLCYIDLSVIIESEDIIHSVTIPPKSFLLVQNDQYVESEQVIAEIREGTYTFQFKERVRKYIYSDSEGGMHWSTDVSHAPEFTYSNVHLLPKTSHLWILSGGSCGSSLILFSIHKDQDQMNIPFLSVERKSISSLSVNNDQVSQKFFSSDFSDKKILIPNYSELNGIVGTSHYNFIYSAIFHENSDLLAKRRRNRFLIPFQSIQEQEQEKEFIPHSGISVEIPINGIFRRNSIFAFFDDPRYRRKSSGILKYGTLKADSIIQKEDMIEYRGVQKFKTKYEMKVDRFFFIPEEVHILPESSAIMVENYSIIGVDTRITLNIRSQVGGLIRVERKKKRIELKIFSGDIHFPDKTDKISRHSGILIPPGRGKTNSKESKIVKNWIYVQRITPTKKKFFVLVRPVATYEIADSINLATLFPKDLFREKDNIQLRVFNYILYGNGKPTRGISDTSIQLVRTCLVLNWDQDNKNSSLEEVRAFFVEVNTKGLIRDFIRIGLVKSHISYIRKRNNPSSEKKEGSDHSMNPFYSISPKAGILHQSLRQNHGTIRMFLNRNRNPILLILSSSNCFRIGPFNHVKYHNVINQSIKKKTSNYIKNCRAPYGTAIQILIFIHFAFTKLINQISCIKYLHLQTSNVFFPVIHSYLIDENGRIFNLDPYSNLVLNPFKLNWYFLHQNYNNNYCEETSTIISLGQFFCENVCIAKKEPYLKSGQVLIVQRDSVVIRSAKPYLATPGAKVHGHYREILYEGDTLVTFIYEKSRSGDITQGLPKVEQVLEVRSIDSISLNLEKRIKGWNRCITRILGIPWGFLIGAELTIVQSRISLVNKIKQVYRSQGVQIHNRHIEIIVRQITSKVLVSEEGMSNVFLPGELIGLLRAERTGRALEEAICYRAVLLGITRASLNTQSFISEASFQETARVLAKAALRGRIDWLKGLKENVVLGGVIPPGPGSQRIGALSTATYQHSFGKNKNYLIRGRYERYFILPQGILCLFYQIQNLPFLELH
Briefly: cryo-EM structure; native 21-subunit SaPEP purified from S. alba cotyledon chloroplasts; graphene oxide grids; consensus map 3.0 Å, multibody and composite maps; open conformation. Particulars: both partners purified.

B1: β subunit of the Sinapis alba plastid-encoded RNA polymerase (SaPEP) (natural protein, UniProt P46818 1-1078, looked up)
chain: MINAKKMLGDGKEGTSTIPGFNQIQFEGFYRFIDQGLIEELSKFPKIEDIDHEIEFQLFVETYQLVEPLIKERDAVYESLTYSSELYVSAGLIWKTNRNMQEQRIFIGNIPLMNSLGTSIVNGIYRVVINQILQSPGIYYQSELDHNGISVYTGTIISDWGGRLELEIDKKARIWARVSRKQKISILVLSSAMGSNLREILENVCYPEIFLSFLTDKEKKKIGSKENAILEFYQQFSCVGGDPIFSESLCKELQKKFFHQRCELGRIGRRNINWRLNLNIPQNNIFLLPRDILAAADHLIGMKFGMGTLDDMNHLKNKRIRSVADLLQDQLGLALARLENVVKGTIGGAIRHKLIPPTQNLVTSTPLTTTYESFFGFHPLSQVLDRTNPLTQIVHGRKLSYLGPGGLTGRTANFRIRDIHPSHYGRICPIDTSEGINVGLIGSLSIHARIGDWGSLESPFYELVEKSKKAQIRMLFLSPSQDEYYMIAAGNSLALNRGIQEEQVVPARYRQEFLTIAWEEVHLRSIFPFQYFSIGASLIPFIEHNDANRALMSSNMQRQAVPLSRSEKCIVGTGLERQVALDSGVPAIAEHEGKILYTDTEKIILSGNENTLSIPLIMYQRSNKNTCMHQKPQVPRGKCIKKGQILADGAATVGGELALGKNVLVAYMPWEGYNFEDAVLISECLVYGDIYTSFHIRKYEIQTHVTTQGPERITKEIPHLEGRLLRNLDKNGIVMLGSWVETGDILVGKLTPQVAKESSYAPEDRLLRAILGIQVSTSKETCLKLPIGGRGRVIDVRWVQKKGGSSYNPEIIRVYISQKREIKVGDKVAGRHGNKGIISKILPRQDMPYLQDGRPVDMVFNPLGVPSRMNVGQIFECSLGLAGSLLDRHYRIAPFDERYEQEASRKLVFSELYEASKQTANPWVFEPEYPGKSRIFDGRTGDPFEQPVIIGKPYILKLIHQVDDKIHGRSSGHYALVTQQPLRGRSKQGGQRVGEMEVWALEGFGVAHILQEMLTYKSDHIRARQEVLGTTIIGGTIPKPEDAPESFRLLVRELRSLALELNHFLVSEKNFQINRKEV
notes: plastid-encoded β subunit of the S. alba PEP catalytic core; source: native, in the PEP purified from Sinapis alba cotyledon chloroplasts (heparin, MonoQ, Superose 6)
For the molecule B1, the binding result is recorded as “binds”.
